According to patent publication US20230381229A1 (ALPINE IMMUNE SCIENCES, INC., published 2023):

T1: TIGIT (human)
T1 chain: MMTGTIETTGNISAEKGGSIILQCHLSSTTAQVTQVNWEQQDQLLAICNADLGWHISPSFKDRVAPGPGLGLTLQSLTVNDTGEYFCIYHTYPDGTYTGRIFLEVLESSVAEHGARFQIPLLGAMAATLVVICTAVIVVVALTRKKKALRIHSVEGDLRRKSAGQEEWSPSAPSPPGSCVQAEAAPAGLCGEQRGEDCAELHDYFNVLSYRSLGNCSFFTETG

B1: variant CD155 IgV-Fc D8G, V9I, V11A, P18T, T26M, S52P, L79P, F91S, G92A, T107L, V115A (Fc fusion)
chain: WPPPGTGGIVAQAPTQVTGFLGDSVMLPCYLQVPNMEVTHVSQLTWARHGEPGSMAVFHQTQGPSYSESKRLEFVAARPGAELRNASLRMSALRVEDEGNYTCLFVLFPQGSRSADIWLRVLGSGGGGSEPKSSDKTHTCPPCPAPEAEGAPSVFLFPPKPKDTLMISRTPEVTCVVVDVSHEDPEVKFNWYVDGVEVHNAKTKPREEQYNSTYRVVSVLTVLHQDWLNGKEYKCKVSNKALPAPIEKTISKAKGQPREPQVYTLPPSRDELTKNQVSLTCLVKGFYPSDIAVEWESNGQPENNYKTTPPVLDSDGSFFLYSKLTVDKSRWQQGNVFSCSVMHEALHNHYTQKSLSLSPGK
B2: variant CD155 IgV-Fc V9I, P18F, A47E, G50S, E68G, L79P, F91S, T107M (Fc fusion)
chain: WPPPGTGDIVVQAPTQVFGFLGDSVTLPCYLQVPNMEVTHVSQLTWERHSESGSMAVFHQTQGPSYSGSKRLEFVAARPGAELRNASLRMSGLRVEDEGNYTCLFVMFPQGSRSVDIWLRVLGSGGGGSEPKSSDKTHTCPPCPAPEAEGAPSVFLFPPKPKDTLMISRTPEVTCVVVDVSHEDPEVKFNWYVDGVEVHNAKTKPREEQYNSTYRVVSVLTVLHQDWLNGKEYKCKVSNKALPAPIEKTISKAKGQPREPQVYTLPPSRDELTKNQVSLTCLVKGFYPSDIAVEWESNGQPENNYKTTPPVLDSDGSFFLYSKLTVDKSRWQQGNVFSCSVMHEALHNHYTQKSLSLSPGK
B3: variant CD155 IgV-Fc P18T, T39S, S52P, S54R, L79P, F91S, T107M (Fc fusion)
chain: WPPPGTGDVVVQAPTQVTGFLGDSVTLPCYLQVPNMEVSHVSQLTWARHGEPGRMAVFHQTQGPSYSESKRLEFVAARPGAELRNASLRMSGLRVEDEGNYTCLFVMFPQGSRSVDIWLRVLGSGGGGSEPKSSDKTHTCPPCPAPEAEGAPSVFLFPPKPKDTLMISRTPEVTCVVVDVSHEDPEVKFNWYVDGVEVHNAKTKPREEQYNSTYRVVSVLTVLHQDWLNGKEYKCKVSNKALPAPIEKTISKAKGQPREPQVYTLPPSRDELTKNQVSLTCLVKGFYPSDIAVEWESNGQPENNYKTTPPVLDSDGSFFLYSKLTVDKSRWQQGNVFSCSVMHEALHNHYTQKSLSLSPGK
B4: variant CD155 IgV-Fc P18S, P34S, E51V, L79P, F91S, G111R (Fc fusion)
chain: WPPPGTGDVVVQAPTQVSGFLGDSVTLPCYLQVSNMEVTHVSQLTWARHGVSGSMAVFHQTQGPSYSESKRLEFVAARPGAELRNASLRMSGLRVEDEGNYTCLFVTFPQRSRSVDIWLRVLGSGGGGSEPKSSDKTHTCPPCPAPEAEGAPSVFLFPPKPKDTLMISRTPEVTCVVVDVSHEDPEVKFNWYVDGVEVHNAKTKPREEQYNSTYRVVSVLTVLHQDWLNGKEYKCKVSNKALPAPIEKTISKAKGQPREPQVYTLPPSRDELTKNQVSLTCLVKGFYPSDIAVEWESNGQPENNYKTTPPVLDSDGSFFLYSKLTVDKSRWQQGNVFSCSVMHEALHNHYTQKSLSLSPGK
B5: variant CD155 IgV-Fc P18S, H59N, V75A, L79P, A81T, F91S, L104M, T107M (Fc fusion)
chain: WPPPGTGDVVVQAPTQVSGFLGDSVTLPCYLQVPNMEVTHVSQLTWARHGESGSMAVFNQTQGPSYSESKRLEFAAARPGTELRNASLRMSGLRVEDEGNYTCMFVMFPQGSRSVDIWLRVLGSGGGGSEPKSSDKTHTCPPCPAPEAEGAPSVFLFPPKPKDTLMISRTPEVTCVVVDVSHEDPEVKFNWYVDGVEVHNAKTKPREEQYNSTYRVVSVLTVLHQDWLNGKEYKCKVSNKALPAPIEKTISKAKGQPREPQVYTLPPSRDELTKNQVSLTCLVKGFYPSDIAVEWESNGQPENNYKTTPPVLDSDGSFFLYSKLTVDKSRWQQGNVFSCSVMHEALHNHYTQKSLSLSPGK
B6: variant CD155 IgV-Fc P18S, W46R, E68D, L79P, F91S, T107M, R113G (Fc fusion)
chain: WPPPGTGDVVVQAPTQVSGFLGDSVTLPCYLQVPNMEVTHVSQLTRARHGESGSMAVFHQTQGPSYSDSKRLEFVAARPGAELRNASLRMSGLRVEDEGNYTCLFVMFPQGSGSVDIWLRVLGSGGGGSEPKSSDKTHTCPPCPAPEAEGAPSVFLFPPKPKDTLMISRTPEVTCVVVDVSHEDPEVKFNWYVDGVEVHNAKTKPREEQYNSTYRVVSVLTVLHQDWLNGKEYKCKVSNKALPAPIEKTISKAKGQPREPQVYTLPPSRDELTKNQVSLTCLVKGFYPSDIAVEWESNGQPENNYKTTPPVLDSDGSFFLYSKLTVDKSRWQQGNVFSCSVMHEALHNHYTQKSLSLSPGK
B7: variant CD155 IgV-Fc V9L, P18F, T45A, S65A, S67V, R78K, L79V, F91S, T107M, S114T (Fc fusion)
chain: WPPPGTGDLVVQAPTQVFGFLGDSVTLPCYLQVPNMEVTHVSQLAWARHGESGSMAVFHQTQGPAYVESKRLEFVAAKVGAELRNASLRMSGLRVEDEGNYTCLFVMFPQGSRTVDIWLRVLGSGGGGSEPKSSDKTHTCPPCPAPEAEGAPSVFLFPPKPKDTLMISRTPEVTCVVVDVSHEDPEVKFNWYVDGVEVHNAKTKPREEQYNSTYRVVSVLTVLHQDWLNGKEYKCKVSNKALPAPIEKTISKAKGQPREPQVYTLPPSRDELTKNQVSLTCLVKGFYPSDIAVEWESNGQPENNYKTTPPVLDSDGSFFLYSKLTVDKSRWQQGNVFSCSVMHEALHNHYTQKSLSLSPGK
B8: variant CD155 IgV-Fc P18T, M55L, T61R, L79P, F91S, V106I, T107M (Fc fusion)
chain: WPPPGTGDVVVQAPTQVTGFLGDSVTLPCYLQVPNMEVTHVSQLTWARHGESGSLAVFHQRQGPSYSESKRLEFVAARPGAELRNASLRMSGLRVEDEGNYTCLFIMFPQGSRSVDIWLRVLGSGGGGSEPKSSDKTHTCPPCPAPEAEGAPSVFLFPPKPKDTLMISRTPEVTCVVVDVSHEDPEVKFNWYVDGVEVHNAKTKPREEQYNSTYRVVSVLTVLHQDWLNGKEYKCKVSNKALPAPIEKTISKAKGQPREPQVYTLPPSRDELTKNQVSLTCLVKGFYPSDIAVEWESNGQPENNYKTTPPVLDSDGSFFLYSKLTVDKSRWQQGNVFSCSVMHEALHNHYTQKSLSLSPGK
B9: variant CD155 IgV-Fc T15I, P18S, V33M, N35F, T39S, M55L, R78S, L79P, F91S, T107M (Fc fusion)
chain: WPPPGTGDVVVQAPIQVSGFLGDSVTLPCYLQMPFMEVSHVSQLTWARHGESGSLAVFHQTQGPSYSESKRLEFVAASPGAELRNASLRMSGLRVEDEGNYTCLFVMFPQGSRSVDIWLRVLGSGGGGSEPKSSDKTHTCPPCPAPEAEGAPSVFLFPPKPKDTLMISRTPEVTCVVVDVSHEDPEVKFNWYVDGVEVHNAKTKPREEQYNSTYRVVSVLTVLHQDWLNGKEYKCKVSNKALPAPIEKTISKAKGQPREPQVYTLPPSRDELTKNQVSLTCLVKGFYPSDIAVEWESNGQPENNYKTTPPVLDSDGSFFLYSKLTVDKSRWQQGNVFSCSVMHEALHNHYTQKSLSLSPGK
B10: variant CD155 IgV-Fc P18S, Q62K, K70E, L79P, F91S, G92E, R113W (Fc fusion)
chain: WPPPGTGDVVVQAPTQVSGFLGDSVTLPCYLQVPNMEVTHVSQLTWARHGESGSMAVFHQTKGPSYSESERLEFVAARPGAELRNASLRMSELRVEDEGNYTCLFVTFPQGSWSVDIWLRVLGSGGGGSEPKSSDKTHTCPPCPAPEAEGAPSVFLFPPKPKDTLMISRTPEVTCVVVDVSHEDPEVKFNWYVDGVEVHNAKTKPREEQYNSTYRVVSVLTVLHQDWLNGKEYKCKVSNKALPAPIEKTISKAKGQPREPQVYTLPPSRDELTKNQVSLTCLVKGFYPSDIAVEWESNGQPENNYKTTPPVLDSDGSFFLYSKLTVDKSRWQQGNVFSCSVMHEALHNHYTQKSLSLSPGK
B11: variant CD155 IgV-Fc P18S, D23G, C29R, N35D, E37G, M55I, Q62K, S65A, S67G, R78G, L79P, F91S, L104M, T107M, Q110R (Fc fusion)
chain: WPPPGTGDVVVQAPTQVSGFLGGSVTLPRYLQVPDMGVTHVSQLTWARHGESGSIAVFHQTKGPAYGESKRLEFVAAGPGAELRNASLRMSGLRVEDEGNYTCMFVMFPRGSRSVDIWLRVLGSGGGGSEPKSSDKTHTCPPCPAPEAEGAPSVFLFPPKPKDTLMISRTPEVTCVVVDVSHEDPEVKFNWYVDGVEVHNAKTKPREEQYNSTYRVVSVLTVLHQDWLNGKEYKCKVSNKALPAPIEKTISKAKGQPREPQVYTLPPSRDELTKNQVSLTCLVKGFYPSDIAVEWESNGQPENNYKTTPPVLDSDGSFFLYSKLTVDKSRWQQGNVFSCSVMHEALHNHYTQKSLSLSPGK
B12: variant CD155 IgV-Fc V9I, P18T, H49R, L79P, N85D, F91S, L104T, T107M (Fc fusion)
chain: WPPPGTGDIVVQAPTQVTGFLGDSVTLPCYLQVPNMEVTHVSQLTWARRGESGSMAVFHQTQGPSYSESKRLEFVAARPGAELRDASLRMSGLRVEDEGNYTCTFVMFPQGSRSVDIWLRVLGSGGGGSEPKSSDKTHTCPPCPAPEAEGAPSVFLFPPKPKDTLMISRTPEVTCVVVDVSHEDPEVKFNWYVDGVEVHNAKTKPREEQYNSTYRVVSVLTVLHQDWLNGKEYKCKVSNKALPAPIEKTISKAKGQPREPQVYTLPPSRDELTKNQVSLTCLVKGFYPSDIAVEWESNGQPENNYKTTPPVLDSDGSFFLYSKLTVDKSRWQQGNVFSCSVMHEALHNHYTQKSLSLSPGK
B13: variant CD155 IgV-Fc V9A, P18F, T61S, Q62L, L79P, F91S, G111R (Fc fusion)
chain: WPPPGTGDAVVQAPTQVFGFLGDSVTLPCYLQVPNMEVTHVSQLTWARHGESGSMAVFHQSLGPSYSESKRLEFVAARPGAELRNASLRMSGLRVEDEGNYTCLFVTFPQRSRSVDIWLRVLGSGGGGSEPKSSDKTHTCPPCPAPEAEGAPSVFLFPPKPKDTLMISRTPEVTCVVVDVSHEDPEVKFNWYVDGVEVHNAKTKPREEQYNSTYRVVSVLTVLHQDWLNGKEYKCKVSNKALPAPIEKTISKAKGQPREPQVYTLPPSRDELTKNQVSLTCLVKGFYPSDIAVEWESNGQPENNYKTTPPVLDSDGSFFLYSKLTVDKSRWQQGNVFSCSVMHEALHNHYTQKSLSLSPGK
B14: variant CD155 IgV-Fc P18S, V41A, H49R, S54C, L79S, N85Y, L88P, F91S, L104M, T107M (Fc fusion)
chain: WPPPGTGDVVVQAPTQVSGFLGDSVTLPCYLQVPNMEVTHASQLTWARRGESGCMAVFHQTQGPSYSESKRLEFVAARSGAELRYASPRMSGLRVEDEGNYTCMFVMFPQGSRSVDIWLRVLGSGGGGSEPKSSDKTHTCPPCPAPEAEGAPSVFLFPPKPKDTLMISRTPEVTCVVVDVSHEDPEVKFNWYVDGVEVHNAKTKPREEQYNSTYRVVSVLTVLHQDWLNGKEYKCKVSNKALPAPIEKTISKAKGQPREPQVYTLPPSRDELTKNQVSLTCLVKGFYPSDIAVEWESNGQPENNYKTTPPVLDSDGSFFLYSKLTVDKSRWQQGNVFSCSVMHEALHNHYTQKSLSLSPGK

Target: T1, TIGIT
Assay: cell-based or functional assay

Compared with B1, B2 is lower in “IL-2 luciferase reporter, Normalized Fold Change from CD155-ECD” value: 8.4 fold for the first, 3 fold for the second.

Going from B3 to B4, the “IL-2 luciferase reporter, Normalized Fold Change from CD155-ECD” value rises from -0.1 fold to 2.1 fold.

Compared with B5, B6 is lower in “IL-2 luciferase reporter, Normalized Fold Change from CD155-ECD” value: 3.5 fold for the first, 0.9 fold for the second.

Going from B7 to B8, the “IL-2 luciferase reporter, Normalized Fold Change from CD155-ECD” value falls from 6 fold to 4.5 fold.

Compared with B9, B10 is higher in “IL-2 luciferase reporter, Normalized Fold Change from CD155-ECD” value: 1.3 fold for the first, 2 fold for the second.

Going from B11 to B12, the “IL-2 luciferase reporter, Normalized Fold Change from CD155-ECD” value rises from 1.2 fold to 4 fold.

First: B13
Second: B14
The “IL-2 luciferase reporter, Normalized Fold Change from CD155-ECD” value of the first is higher: 1.3 fold for the first, -1 fold for the second.
